# According to publication PMC7411789, “Application of a Glucose Dehydrogenase-Fused with Zinc Finger Protein to Label DNA Aptamers for the Electrochemical Detection of VEGF”:
# B1: Zif268 target dsDNA (dsDNA)
# DNA 1: GCGTGGGCG
# DNA 2: CGCCCACGC
# Biological target: ZF-GDH (Zif268 fused to N-terminus of AfGDH) (mouse (Zif268); Aspergillus flavus (GDH), UniProt P08046 336-416)
# Test: method not stated; states fusion kept dsDNA binding, with ref 25; TBS: 10 mM Tris-HCl, 100 mM NaCl, pH 7.0; washes with 0.05% Tween-20, block 4% skim milk; 25 °C, 1 h
binder,measurement,value
B1,binding result,binds
